What was measured:
Cynomolgus CD73 ECD = target: T1, Cynomolgus CD73 ECD (cynomolgus, UniProt A0A2K5V5U7 27-549); experiment: SPR (ProteOn), antibody captured by anti-human Fc, CD73 ECD in mobile phase
T1 construct: extracellular domain; also called cyno CD73
T1 sequence: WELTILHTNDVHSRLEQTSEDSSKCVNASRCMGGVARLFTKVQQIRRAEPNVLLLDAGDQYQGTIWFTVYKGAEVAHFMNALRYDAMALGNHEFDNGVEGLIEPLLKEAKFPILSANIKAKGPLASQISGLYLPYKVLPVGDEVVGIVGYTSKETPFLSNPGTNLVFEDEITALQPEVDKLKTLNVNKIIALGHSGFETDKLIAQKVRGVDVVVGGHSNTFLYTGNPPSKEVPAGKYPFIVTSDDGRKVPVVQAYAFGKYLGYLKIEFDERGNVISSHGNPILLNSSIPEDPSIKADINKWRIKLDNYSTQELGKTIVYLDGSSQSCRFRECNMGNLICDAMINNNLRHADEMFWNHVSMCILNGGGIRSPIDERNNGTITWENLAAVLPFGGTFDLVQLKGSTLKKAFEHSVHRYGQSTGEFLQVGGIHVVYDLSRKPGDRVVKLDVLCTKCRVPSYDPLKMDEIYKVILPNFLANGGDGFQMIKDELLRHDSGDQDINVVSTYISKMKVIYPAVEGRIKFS
Excerpt: (§1) A ProteOn XPR36 instrument was used to characterize binding of MEDI9447 to human, murine, and cynomolgus CD73 ECD. MEDI9447 was affinity-captured using an anti-human Fc antibody. CD73 ECD was in the mobile phase. The association and dissociation of CD73 to MEDI9447 could be accurately described with the Langmuir 1: 1 model.

Human CD73 ECD = target: T2, Human CD73 ECD (human, UniProt P21589 27-549); experiment: as above
T2 construct: Biotinylated in some assays; also called human CD73 extracellular domain; huCD73
T2 sequence: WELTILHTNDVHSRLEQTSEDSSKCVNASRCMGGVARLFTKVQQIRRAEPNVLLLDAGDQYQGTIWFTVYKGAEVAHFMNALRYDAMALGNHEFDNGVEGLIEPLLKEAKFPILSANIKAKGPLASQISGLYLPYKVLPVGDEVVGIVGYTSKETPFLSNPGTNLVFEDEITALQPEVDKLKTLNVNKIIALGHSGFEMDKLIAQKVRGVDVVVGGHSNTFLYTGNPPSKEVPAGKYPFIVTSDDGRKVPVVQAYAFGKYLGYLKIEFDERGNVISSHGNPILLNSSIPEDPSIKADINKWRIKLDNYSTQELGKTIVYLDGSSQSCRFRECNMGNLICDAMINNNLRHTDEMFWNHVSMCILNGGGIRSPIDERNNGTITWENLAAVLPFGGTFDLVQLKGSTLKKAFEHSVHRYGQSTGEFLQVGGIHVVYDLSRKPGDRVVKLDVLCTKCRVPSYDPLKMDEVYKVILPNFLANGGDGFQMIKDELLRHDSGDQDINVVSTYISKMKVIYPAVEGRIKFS
Excerpt: as §1

Murine CD73 ECD = target: T3, Murine CD73 ECD (murine, UniProt Q61503 29-551, limits assumed); experiment: as above
T3 construct: extracellular domain; In-house recombinant ECD; also called murine CD73 extracellular domain; muCD73
T3 sequence (looked up): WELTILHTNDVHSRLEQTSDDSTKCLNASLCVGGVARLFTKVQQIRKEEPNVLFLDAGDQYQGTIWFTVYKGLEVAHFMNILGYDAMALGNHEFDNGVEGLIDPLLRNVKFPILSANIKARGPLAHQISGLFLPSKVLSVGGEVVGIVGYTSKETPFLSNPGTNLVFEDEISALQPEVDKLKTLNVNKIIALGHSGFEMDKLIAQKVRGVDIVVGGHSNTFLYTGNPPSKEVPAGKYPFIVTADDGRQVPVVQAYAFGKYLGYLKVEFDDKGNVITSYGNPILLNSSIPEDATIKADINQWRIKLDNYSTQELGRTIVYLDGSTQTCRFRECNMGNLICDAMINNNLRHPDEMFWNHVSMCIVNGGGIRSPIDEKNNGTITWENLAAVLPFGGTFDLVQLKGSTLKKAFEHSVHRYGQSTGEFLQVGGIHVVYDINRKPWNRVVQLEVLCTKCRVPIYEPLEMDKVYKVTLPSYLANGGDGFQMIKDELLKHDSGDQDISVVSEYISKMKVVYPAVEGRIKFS
Excerpt: as §1

[1] = target: T4, Murine CD73 on cells (4T1, Jurkat mCD73 knock-in) (murine, UniProt Q61503 29-551); experiment: flow cytometry, 4T1 / 4T1(mCD73 -shRNA)
T4 construct: whole, on cells; also called 4T1 (murine)
T4 sequence (looked up): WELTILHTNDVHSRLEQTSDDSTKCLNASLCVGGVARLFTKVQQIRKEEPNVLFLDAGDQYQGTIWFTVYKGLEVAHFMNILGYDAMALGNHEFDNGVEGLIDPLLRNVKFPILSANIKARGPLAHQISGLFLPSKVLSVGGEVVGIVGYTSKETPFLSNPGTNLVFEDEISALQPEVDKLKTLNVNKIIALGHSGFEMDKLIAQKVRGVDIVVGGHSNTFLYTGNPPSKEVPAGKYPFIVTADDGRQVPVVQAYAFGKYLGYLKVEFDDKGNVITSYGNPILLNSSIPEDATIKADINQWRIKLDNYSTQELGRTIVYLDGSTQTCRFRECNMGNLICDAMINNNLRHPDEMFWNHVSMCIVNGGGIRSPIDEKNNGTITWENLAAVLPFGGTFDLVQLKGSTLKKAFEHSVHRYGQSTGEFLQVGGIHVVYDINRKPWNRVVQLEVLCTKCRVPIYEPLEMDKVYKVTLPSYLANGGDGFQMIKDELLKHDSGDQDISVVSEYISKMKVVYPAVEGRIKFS

[2] = target: T5, Human CD73 on cells (MDA-MB-231, Jurkat CD73 knock-in, NCI-H322) (human, UniProt P21589 27-549); experiment: flow cytometry, MDA-MB-231 / MDA-MB-231(CD73-shRNA)
T5 construct: GPI-anchored native protein; also called native human CD73
T5 sequence: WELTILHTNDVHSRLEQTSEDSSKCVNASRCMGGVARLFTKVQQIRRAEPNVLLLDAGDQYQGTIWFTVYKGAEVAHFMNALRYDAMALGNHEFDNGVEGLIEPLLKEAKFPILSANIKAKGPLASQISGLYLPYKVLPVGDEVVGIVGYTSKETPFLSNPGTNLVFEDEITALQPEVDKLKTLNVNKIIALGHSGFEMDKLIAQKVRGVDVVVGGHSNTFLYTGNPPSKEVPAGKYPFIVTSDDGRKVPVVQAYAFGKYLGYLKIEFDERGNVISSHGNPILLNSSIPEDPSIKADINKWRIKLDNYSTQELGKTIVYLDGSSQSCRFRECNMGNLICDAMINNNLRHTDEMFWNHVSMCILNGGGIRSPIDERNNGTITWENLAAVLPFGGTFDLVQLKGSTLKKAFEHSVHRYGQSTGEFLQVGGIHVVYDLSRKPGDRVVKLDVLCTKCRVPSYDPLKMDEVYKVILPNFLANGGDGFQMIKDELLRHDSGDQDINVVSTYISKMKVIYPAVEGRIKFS

B1: MEDI9447 (antibody, human IgG1, lambda, V domains shown)
VH: EVQLLESGGGLVQPGGSLRLSCAASGFTFSSYAYSWVRQAPGKGLEWVSAISGSGGRTYYADSVKGRFTISRDNSKNTLYLQMNSLRAEDTAVYYCARLGYGRVDEWGRGTLVTVSS
VL: QSVLTQPPSASGTPGQRVTISCSGSLSNIGRNPVNWYQQLPGTAPKLLIYLDNLRLSGVPDRFSGSKSGTSASLAISGLQSEDEADYYCATWDDSHPGWTFGGGTKLTVLG
notes: Human IgG1-TM (L234F, L235E, P331S), lambda light chain; also called clone 10.3 antibody; 73combo3
- Kd (Cynomolgus CD73 ECD): 6.5 pM
- koff (Cynomolgus CD73 ECD): 1.76e-05 s⁻¹
- kon (Cynomolgus CD73 ECD): 2.71e+06 M⁻¹ s⁻¹
- koff (Human CD73 ECD): 1.06e-05 s⁻¹
- kon (Human CD73 ECD): 2.57e+06 M⁻¹ s⁻¹
- koff (Murine CD73 ECD): 2.32e-06 s⁻¹
- kon (Murine CD73 ECD): 2.41e+06 M⁻¹ s⁻¹
- Mean Fluorescence Intensity Ratio (MFIR) [1]: 3.9
- Mean Fluorescence Intensity Ratio (MFIR) [2]: 3.5

— patent publication US20230340152A1 (published 2023)
